Assay results from patent US20240209104A1.

Key:
[1] = target: OX40 on OX40 over-expressed cells (UniProt P43489); assay: flow cytometry, 1 µg/ml isotype control on OX40 over-expressed cells (PBS: 1388)
[2] = target: OX40 on OX40 over-expressed cells (UniProt P43489); assay: flow cytometry, 1 µg/ml positive reference on OX40 over-expressed cells

Sequence of OX40 on OX40 over-expressed cells (P43489 29-277): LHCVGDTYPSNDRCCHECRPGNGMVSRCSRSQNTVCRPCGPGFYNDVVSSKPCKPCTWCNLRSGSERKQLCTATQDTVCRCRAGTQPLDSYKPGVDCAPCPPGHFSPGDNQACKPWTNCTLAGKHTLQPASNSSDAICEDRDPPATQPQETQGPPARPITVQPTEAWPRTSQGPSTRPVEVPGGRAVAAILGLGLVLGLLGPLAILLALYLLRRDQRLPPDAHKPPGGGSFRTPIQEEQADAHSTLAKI

Substance	Y586 channel PE fluorescence value [1]	Y586 channel PE fluorescence value [2]
IgG2a isotype control (clone MG2a-53, Biogene) (antibody)	1830	–
anti-OX40 antibody (clone ACT35, Biogene)	–	210000
